This note sets out measurements from the Human Domainome abundance scans (Beltran et al. 2025).

B1: POU domain, class 2, transcription factor 1, residues 285 to 354; numbered along this chain, P14859 (parent)
chain: LEELEQFAKTFKQRRIKLGFTQGDVGLAMGKLYGNDFSQTTISRFEALNLSFKNMCKLKPLLEKWLNDAE

± gives the uncertainty stated by the source.

The variants in the data set derive from B1. The experiment in a line: abundance fitness (aPCA) (normalised: wild type 0, dead -1); higher = more abundant; growth selection in yeast, the domain comes from the species named. As to conditions: Homo sapiens.
For LEELEQFAKTFKQRHIKLGFTQGDVGLAMGKLYGNDFSQTTISRFEALNLSFKNMCKLKPLLEKWLNDAE [R15H], the abundance fitness was -0.725 ± 0.14. In the case of LEELEQFAKTFKQRYIKLGFTQGDVGLAMGKLYGNDFSQTTISRFEALNLSFKNMCKLKPLLEKWLNDAE [R15Y], the abundance fitness was -0.387 ± 0.12. With LEELEQFAKTFKQRVIKLGFTQGDVGLAMGKLYGNDFSQTTISRFEALNLSFKNMCKLKPLLEKWLNDAE [R15V], the abundance fitness was -0.815 ± 0.042. As for LEELEQFAKTFKQRWIKLGFTQGDVGLAMGKLYGNDFSQTTISRFEALNLSFKNMCKLKPLLEKWLNDAE [R15W], the figure is -0.953 ± 0.053; as for LEELEQFAKTFKQRAIKLGFTQGDVGLAMGKLYGNDFSQTTISRFEALNLSFKNMCKLKPLLEKWLNDAE [R15A], -0.835 ± 0.063. As to LEELEQFAKTFKQRCIKLGFTQGDVGLAMGKLYGNDFSQTTISRFEALNLSFKNMCKLKPLLEKWLNDAE [R15C], the abundance fitness is -0.655 ± 0.086. As for LEELEQFAKTFKQRNIKLGFTQGDVGLAMGKLYGNDFSQTTISRFEALNLSFKNMCKLKPLLEKWLNDAE [R15N], the figure is -0.902 ± 0.38. LEELEQFAKTFKQRGIKLGFTQGDVGLAMGKLYGNDFSQTTISRFEALNLSFKNMCKLKPLLEKWLNDAE [R15G]: the abundance fitness is -1.03 ± 0.05. In the case of LEELEQFAKTFKQREIKLGFTQGDVGLAMGKLYGNDFSQTTISRFEALNLSFKNMCKLKPLLEKWLNDAE [R15E] it was -0.971 ± 0.091. In the case of LEELEQFAKTFKQRLIKLGFTQGDVGLAMGKLYGNDFSQTTISRFEALNLSFKNMCKLKPLLEKWLNDAE [R15L] it was -0.826 ± 0.025. As to LEELEQFAKTFKQRKIKLGFTQGDVGLAMGKLYGNDFSQTTISRFEALNLSFKNMCKLKPLLEKWLNDAE [R15K], the abundance fitness was -1.09 ± 0.11. In the case of LEELEQFAKTFKQRPIKLGFTQGDVGLAMGKLYGNDFSQTTISRFEALNLSFKNMCKLKPLLEKWLNDAE [R15P] it was -1.09 ± 0.15. In the case of LEELEQFAKTFKQRIIKLGFTQGDVGLAMGKLYGNDFSQTTISRFEALNLSFKNMCKLKPLLEKWLNDAE [R15I] it was -1.1 ± 0.48; in that of LEELEQFAKTFKQRFIKLGFTQGDVGLAMGKLYGNDFSQTTISRFEALNLSFKNMCKLKPLLEKWLNDAE [R15F], -0.533 ± 0.077. As to LEELEQFAKTFKQRSIKLGFTQGDVGLAMGKLYGNDFSQTTISRFEALNLSFKNMCKLKPLLEKWLNDAE [R15S], the abundance fitness was -0.974 ± 0.054. For LEELEQFAKTFKQRTIKLGFTQGDVGLAMGKLYGNDFSQTTISRFEALNLSFKNMCKLKPLLEKWLNDAE [R15T], the abundance fitness was -1.03 ± 0.1. In the case of LEELEQFAKTFKQRRMKLGFTQGDVGLAMGKLYGNDFSQTTISRFEALNLSFKNMCKLKPLLEKWLNDAE [I16M] it was 0.004 ± 0.021; in that of LEELEQFAKTFKQRRNKLGFTQGDVGLAMGKLYGNDFSQTTISRFEALNLSFKNMCKLKPLLEKWLNDAE [I16N], -0.105 ± 0.047. As for LEELEQFAKTFKQRRCKLGFTQGDVGLAMGKLYGNDFSQTTISRFEALNLSFKNMCKLKPLLEKWLNDAE [I16C], the figure is -0.325 ± 0.12; as for LEELEQFAKTFKQRRSKLGFTQGDVGLAMGKLYGNDFSQTTISRFEALNLSFKNMCKLKPLLEKWLNDAE [I16S], -0.018 ± 0.042. Take LEELEQFAKTFKQRRDKLGFTQGDVGLAMGKLYGNDFSQTTISRFEALNLSFKNMCKLKPLLEKWLNDAE [I16D]: the abundance fitness is -0.2 ± 0.3. Regarding LEELEQFAKTFKQRRKKLGFTQGDVGLAMGKLYGNDFSQTTISRFEALNLSFKNMCKLKPLLEKWLNDAE [I16K], the abundance fitness is -0.021 ± 0.027. For LEELEQFAKTFKQRRPKLGFTQGDVGLAMGKLYGNDFSQTTISRFEALNLSFKNMCKLKPLLEKWLNDAE [I16P], the abundance fitness is -1.07 ± 0.17.

As for LEELEQFAKTFKQRRFKLGFTQGDVGLAMGKLYGNDFSQTTISRFEALNLSFKNMCKLKPLLEKWLNDAE [I16F], the abundance fitness is -0.131 ± 0.025.

For LEELEQFAKTFKQRRTKLGFTQGDVGLAMGKLYGNDFSQTTISRFEALNLSFKNMCKLKPLLEKWLNDAE [I16T], the abundance fitness is -0.03 ± 0.049. Turning to LEELEQFAKTFKQRRGKLGFTQGDVGLAMGKLYGNDFSQTTISRFEALNLSFKNMCKLKPLLEKWLNDAE [I16G], the abundance fitness was -0.207 ± 0.11.

On to LEELEQFAKTFKQRRAKLGFTQGDVGLAMGKLYGNDFSQTTISRFEALNLSFKNMCKLKPLLEKWLNDAE [I16A], for which the abundance fitness was -0.039 ± 0.078. In the case of LEELEQFAKTFKQRREKLGFTQGDVGLAMGKLYGNDFSQTTISRFEALNLSFKNMCKLKPLLEKWLNDAE [I16E], the abundance fitness is 0.073 ± 0.082. In the case of LEELEQFAKTFKQRRRKLGFTQGDVGLAMGKLYGNDFSQTTISRFEALNLSFKNMCKLKPLLEKWLNDAE [I16R] it was -0.169 ± 0.049; in that of LEELEQFAKTFKQRRLKLGFTQGDVGLAMGKLYGNDFSQTTISRFEALNLSFKNMCKLKPLLEKWLNDAE [I16L], -0.007 ± 0.017. In the case of LEELEQFAKTFKQPRIKLGFTQGDVGLAMGKLYGNDFSQTTISRFEALNLSFKNMCKLKPLLEKWLNDAE [R14P] it was -1.05 ± 0.14; in that of LEELEQFAKTFKQMRIKLGFTQGDVGLAMGKLYGNDFSQTTISRFEALNLSFKNMCKLKPLLEKWLNDAE [R14M], -0.089 ± 0.057; in that of LEELEQFAKTFKQTRIKLGFTQGDVGLAMGKLYGNDFSQTTISRFEALNLSFKNMCKLKPLLEKWLNDAE [R14T], -0.024 ± 0.059. In the case of LEELEQFAKTFKQSRIKLGFTQGDVGLAMGKLYGNDFSQTTISRFEALNLSFKNMCKLKPLLEKWLNDAE [R14S], the abundance fitness is -0.052 ± 0.04.

For the variant LEELEQFAKTFKQQRIKLGFTQGDVGLAMGKLYGNDFSQTTISRFEALNLSFKNMCKLKPLLEKWLNDAE [R14Q], the abundance fitness is -0.1 ± 0.075. As for LEELEQFAKTFKQVRIKLGFTQGDVGLAMGKLYGNDFSQTTISRFEALNLSFKNMCKLKPLLEKWLNDAE [R14V], the abundance fitness is -0.004 ± 0.039.

In the case of LEELEQFAKTFKQWRIKLGFTQGDVGLAMGKLYGNDFSQTTISRFEALNLSFKNMCKLKPLLEKWLNDAE [R14W], the abundance fitness was -0.296 ± 0.35. For LEELEQFAKTFKQYRIKLGFTQGDVGLAMGKLYGNDFSQTTISRFEALNLSFKNMCKLKPLLEKWLNDAE [R14Y], the abundance fitness is -0.384 ± 0.14. Take LEELEQFAKTFKQNRIKLGFTQGDVGLAMGKLYGNDFSQTTISRFEALNLSFKNMCKLKPLLEKWLNDAE [R14N]: the abundance fitness is -0.29 ± 0.11.
